Target: T1, CD3 epsilon homodimer protein (UniProt P07766 23-126)
T1 construct: Construct of the homodimer is not described; also called CD3 (CD3 epsilon)
Assay: SPR Biacore T200, CD3e homodimer on chip, antibody analyte;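 also: CD3 epsilon homodimer amine-coupled on CM4 sensor chip, antibodies injected as analyte at 25 °C in HBS-EP+, ratio ≥0.8 taken as binding retained versus unaltered parent antibody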

T1 sequence (P07766 23-126): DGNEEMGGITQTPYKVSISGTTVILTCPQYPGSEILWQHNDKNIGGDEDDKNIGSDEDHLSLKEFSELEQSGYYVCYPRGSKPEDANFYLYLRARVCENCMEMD

Binder	ratio of amounts bound (altered form/GLS3000)
GLS3000 G89Q one-arm antibody (antibody, human IgG1, kappa, L234A L235A, N297A, name in Kabat numbering) light: DIVMTQSPLSLPVTPGEPASISCRSSQSLVHSNRNTYLHWYQQKPGQAPRLLIYKVSNRFSGVPDRFSGSGSGTDFTLKISRVEAEDVGVYYCQQGTQVPYTFGQGTKLEIKRTVAAPSVFIFPPSDEQLKSGTASVVCLLNNFYPREAKVQWKVDNALQSGNSQESVTEQDSKDSTYSLSSTLTLSKADYEKHKVYACEVTHQGLSSPVTKSFNRGEC heavy: QVQLVESGGGVVQPGRSLRLSCAASGFTFSNAWMHWVRQAPGKGLEWVAQIKAKSNNYATYYAESVKGRFTISRDDSKNSLYLQMNSLKTEDTAVYYCRYVHYGAYYGVDAWGQGTTVTVSSASTKGPSVFPLAPSSKSTSGGTAALGCLVKDYFPEPVTVSWNSGALTSGVHTFPAVLQSSGLYSLSSVVTVPSSSLGTQTYICNVNHKPSNTKVDKKVEPKSCDKTHTCPPCPAPEAAGGPSVFLFPPKPKDTLMISRTPEVTCVVVDVSHEDPEVKFNWYVDGVEVHNAKTKPREEQYASTYRVVSVLTVLHQDWLNGKEYKCKVSNKALPAPIEKTISKAKGQPREPQVYTLPPSRCELTKNQVSLSCAVKGFYPSDIAVEWESNGQPENNYKTTPPVLDSDGSFFLVSKLTVDKSRWQQGNVFSCSVMHEALHNHYTQKSLSLSPDYKDDDDK EPKSSDKTHTCPPCPAPELLGGPSVFLFPPKPKDTLMISRTPEVTCVVVDVSHEDPEVKFNWYVDGVEVHNAKTKPREEQYNSTYRVVSVLTVLHQDWLNGKEYKCKVSNKALPAPIEKTISKAKGQPREPQVCTLPPSRDELTKNQVSLWCLVKGFYPSDIAVEWESNGQPENNYKTTPPVLDSDGSFFLYSKLTVDKSRWQQGNVFSCSVMHEALHNRYTQKSLSLSP	0.38
GLS3000 G89P one-arm antibody (antibody, human IgG1, kappa, L234A L235A, N297A, name in Kabat numbering) light: DIVMTQSPLSLPVTPGEPASISCRSSQSLVHSNRNTYLHWYQQKPGQAPRLLIYKVSNRFSGVPDRFSGSGSGTDFTLKISRVEAEDVGVYYCPQGTQVPYTFGQGTKLEIKRTVAAPSVFIFPPSDEQLKSGTASVVCLLNNFYPREAKVQWKVDNALQSGNSQESVTEQDSKDSTYSLSSTLTLSKADYEKHKVYACEVTHQGLSSPVTKSFNRGEC heavy: QVQLVESGGGVVQPGRSLRLSCAASGFTFSNAWMHWVRQAPGKGLEWVAQIKAKSNNYATYYAESVKGRFTISRDDSKNSLYLQMNSLKTEDTAVYYCRYVHYGAYYGVDAWGQGTTVTVSSASTKGPSVFPLAPSSKSTSGGTAALGCLVKDYFPEPVTVSWNSGALTSGVHTFPAVLQSSGLYSLSSVVTVPSSSLGTQTYICNVNHKPSNTKVDKKVEPKSCDKTHTCPPCPAPEAAGGPSVFLFPPKPKDTLMISRTPEVTCVVVDVSHEDPEVKFNWYVDGVEVHNAKTKPREEQYASTYRVVSVLTVLHQDWLNGKEYKCKVSNKALPAPIEKTISKAKGQPREPQVYTLPPSRCELTKNQVSLSCAVKGFYPSDIAVEWESNGQPENNYKTTPPVLDSDGSFFLVSKLTVDKSRWQQGNVFSCSVMHEALHNHYTQKSLSLSPDYKDDDDK EPKSSDKTHTCPPCPAPELLGGPSVFLFPPKPKDTLMISRTPEVTCVVVDVSHEDPEVKFNWYVDGVEVHNAKTKPREEQYNSTYRVVSVLTVLHQDWLNGKEYKCKVSNKALPAPIEKTISKAKGQPREPQVCTLPPSRDELTKNQVSLWCLVKGFYPSDIAVEWESNGQPENNYKTTPPVLDSDGSFFLYSKLTVDKSRWQQGNVFSCSVMHEALHNRYTQKSLSLSP	0.35
GLS3000 G89M one-arm antibody (antibody, human IgG1, kappa, L234A L235A, N297A, name in Kabat numbering) light: DIVMTQSPLSLPVTPGEPASISCRSSQSLVHSNRNTYLHWYQQKPGQAPRLLIYKVSNRFSGVPDRFSGSGSGTDFTLKISRVEAEDVGVYYCMQGTQVPYTFGQGTKLEIKRTVAAPSVFIFPPSDEQLKSGTASVVCLLNNFYPREAKVQWKVDNALQSGNSQESVTEQDSKDSTYSLSSTLTLSKADYEKHKVYACEVTHQGLSSPVTKSFNRGEC heavy: QVQLVESGGGVVQPGRSLRLSCAASGFTFSNAWMHWVRQAPGKGLEWVAQIKAKSNNYATYYAESVKGRFTISRDDSKNSLYLQMNSLKTEDTAVYYCRYVHYGAYYGVDAWGQGTTVTVSSASTKGPSVFPLAPSSKSTSGGTAALGCLVKDYFPEPVTVSWNSGALTSGVHTFPAVLQSSGLYSLSSVVTVPSSSLGTQTYICNVNHKPSNTKVDKKVEPKSCDKTHTCPPCPAPEAAGGPSVFLFPPKPKDTLMISRTPEVTCVVVDVSHEDPEVKFNWYVDGVEVHNAKTKPREEQYASTYRVVSVLTVLHQDWLNGKEYKCKVSNKALPAPIEKTISKAKGQPREPQVYTLPPSRCELTKNQVSLSCAVKGFYPSDIAVEWESNGQPENNYKTTPPVLDSDGSFFLVSKLTVDKSRWQQGNVFSCSVMHEALHNHYTQKSLSLSPDYKDDDDK EPKSSDKTHTCPPCPAPELLGGPSVFLFPPKPKDTLMISRTPEVTCVVVDVSHEDPEVKFNWYVDGVEVHNAKTKPREEQYNSTYRVVSVLTVLHQDWLNGKEYKCKVSNKALPAPIEKTISKAKGQPREPQVCTLPPSRDELTKNQVSLWCLVKGFYPSDIAVEWESNGQPENNYKTTPPVLDSDGSFFLYSKLTVDKSRWQQGNVFSCSVMHEALHNRYTQKSLSLSP	0.52
GLS3000 G89N one-arm antibody (antibody, human IgG1, kappa, L234A L235A, N297A, name in Kabat numbering) light: DIVMTQSPLSLPVTPGEPASISCRSSQSLVHSNRNTYLHWYQQKPGQAPRLLIYKVSNRFSGVPDRFSGSGSGTDFTLKISRVEAEDVGVYYCNQGTQVPYTFGQGTKLEIKRTVAAPSVFIFPPSDEQLKSGTASVVCLLNNFYPREAKVQWKVDNALQSGNSQESVTEQDSKDSTYSLSSTLTLSKADYEKHKVYACEVTHQGLSSPVTKSFNRGEC heavy: QVQLVESGGGVVQPGRSLRLSCAASGFTFSNAWMHWVRQAPGKGLEWVAQIKAKSNNYATYYAESVKGRFTISRDDSKNSLYLQMNSLKTEDTAVYYCRYVHYGAYYGVDAWGQGTTVTVSSASTKGPSVFPLAPSSKSTSGGTAALGCLVKDYFPEPVTVSWNSGALTSGVHTFPAVLQSSGLYSLSSVVTVPSSSLGTQTYICNVNHKPSNTKVDKKVEPKSCDKTHTCPPCPAPEAAGGPSVFLFPPKPKDTLMISRTPEVTCVVVDVSHEDPEVKFNWYVDGVEVHNAKTKPREEQYASTYRVVSVLTVLHQDWLNGKEYKCKVSNKALPAPIEKTISKAKGQPREPQVYTLPPSRCELTKNQVSLSCAVKGFYPSDIAVEWESNGQPENNYKTTPPVLDSDGSFFLVSKLTVDKSRWQQGNVFSCSVMHEALHNHYTQKSLSLSPDYKDDDDK EPKSSDKTHTCPPCPAPELLGGPSVFLFPPKPKDTLMISRTPEVTCVVVDVSHEDPEVKFNWYVDGVEVHNAKTKPREEQYNSTYRVVSVLTVLHQDWLNGKEYKCKVSNKALPAPIEKTISKAKGQPREPQVCTLPPSRDELTKNQVSLWCLVKGFYPSDIAVEWESNGQPENNYKTTPPVLDSDGSFFLYSKLTVDKSRWQQGNVFSCSVMHEALHNRYTQKSLSLSP	0.8

Now from value to binder:

ratio of amounts bound (altered form/GLS3000)	Binder
0.4	GLS3000 G89K one-arm antibody (antibody, human IgG1, kappa, L234A L235A, N297A, name in Kabat numbering) light: DIVMTQSPLSLPVTPGEPASISCRSSQSLVHSNRNTYLHWYQQKPGQAPRLLIYKVSNRFSGVPDRFSGSGSGTDFTLKISRVEAEDVGVYYCKQGTQVPYTFGQGTKLEIKRTVAAPSVFIFPPSDEQLKSGTASVVCLLNNFYPREAKVQWKVDNALQSGNSQESVTEQDSKDSTYSLSSTLTLSKADYEKHKVYACEVTHQGLSSPVTKSFNRGEC heavy: QVQLVESGGGVVQPGRSLRLSCAASGFTFSNAWMHWVRQAPGKGLEWVAQIKAKSNNYATYYAESVKGRFTISRDDSKNSLYLQMNSLKTEDTAVYYCRYVHYGAYYGVDAWGQGTTVTVSSASTKGPSVFPLAPSSKSTSGGTAALGCLVKDYFPEPVTVSWNSGALTSGVHTFPAVLQSSGLYSLSSVVTVPSSSLGTQTYICNVNHKPSNTKVDKKVEPKSCDKTHTCPPCPAPEAAGGPSVFLFPPKPKDTLMISRTPEVTCVVVDVSHEDPEVKFNWYVDGVEVHNAKTKPREEQYASTYRVVSVLTVLHQDWLNGKEYKCKVSNKALPAPIEKTISKAKGQPREPQVYTLPPSRCELTKNQVSLSCAVKGFYPSDIAVEWESNGQPENNYKTTPPVLDSDGSFFLVSKLTVDKSRWQQGNVFSCSVMHEALHNHYTQKSLSLSPDYKDDDDK EPKSSDKTHTCPPCPAPELLGGPSVFLFPPKPKDTLMISRTPEVTCVVVDVSHEDPEVKFNWYVDGVEVHNAKTKPREEQYNSTYRVVSVLTVLHQDWLNGKEYKCKVSNKALPAPIEKTISKAKGQPREPQVCTLPPSRDELTKNQVSLWCLVKGFYPSDIAVEWESNGQPENNYKTTPPVLDSDGSFFLYSKLTVDKSRWQQGNVFSCSVMHEALHNRYTQKSLSLSP
0.94	GLS3000 G89L one-arm antibody (antibody, human IgG1, kappa, L234A L235A, N297A, name in Kabat numbering) light: DIVMTQSPLSLPVTPGEPASISCRSSQSLVHSNRNTYLHWYQQKPGQAPRLLIYKVSNRFSGVPDRFSGSGSGTDFTLKISRVEAEDVGVYYCLQGTQVPYTFGQGTKLEIKRTVAAPSVFIFPPSDEQLKSGTASVVCLLNNFYPREAKVQWKVDNALQSGNSQESVTEQDSKDSTYSLSSTLTLSKADYEKHKVYACEVTHQGLSSPVTKSFNRGEC heavy: QVQLVESGGGVVQPGRSLRLSCAASGFTFSNAWMHWVRQAPGKGLEWVAQIKAKSNNYATYYAESVKGRFTISRDDSKNSLYLQMNSLKTEDTAVYYCRYVHYGAYYGVDAWGQGTTVTVSSASTKGPSVFPLAPSSKSTSGGTAALGCLVKDYFPEPVTVSWNSGALTSGVHTFPAVLQSSGLYSLSSVVTVPSSSLGTQTYICNVNHKPSNTKVDKKVEPKSCDKTHTCPPCPAPEAAGGPSVFLFPPKPKDTLMISRTPEVTCVVVDVSHEDPEVKFNWYVDGVEVHNAKTKPREEQYASTYRVVSVLTVLHQDWLNGKEYKCKVSNKALPAPIEKTISKAKGQPREPQVYTLPPSRCELTKNQVSLSCAVKGFYPSDIAVEWESNGQPENNYKTTPPVLDSDGSFFLVSKLTVDKSRWQQGNVFSCSVMHEALHNHYTQKSLSLSPDYKDDDDK EPKSSDKTHTCPPCPAPELLGGPSVFLFPPKPKDTLMISRTPEVTCVVVDVSHEDPEVKFNWYVDGVEVHNAKTKPREEQYNSTYRVVSVLTVLHQDWLNGKEYKCKVSNKALPAPIEKTISKAKGQPREPQVCTLPPSRDELTKNQVSLWCLVKGFYPSDIAVEWESNGQPENNYKTTPPVLDSDGSFFLYSKLTVDKSRWQQGNVFSCSVMHEALHNRYTQKSLSLSP
